From the supplement of paper PMC10724198
± gives the standard deviation of the averaged measurements.

Tests used:
Saccharomyces cerevisiae [1] = experiment: protein stability index of tFT-peptide fusion (C-terminal peptide) (PSI (0-1 scale)); higher = more stable (slower turnover)
Experimental: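 MPS profiling in S. cerevisiae of the tFT-X12 degron library: putative degron peptides plus stable controls, 12 aa, fused to the C-terminus of a sfGFP-mCherry timer. Cells are FACS-sorted into 8 mCherry/sfGFP bins and deep-sequenced. PSI runs from 0 (unstable) to 1 (stable). Backgrounds are wild type, das1Δ and doa10Δ at 30 °C, and wild type, das1Δ, cdc34-1 and cdc53-1 at 37 °C; 2-3 technical replicates each.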

Saccharomyces cerevisiae [2] = experiment: as above; details: genetic background: wild type; temperature: 30 C
[3] = genetic background: cdc34-1, temperature: 37 C
[4] = genetic background: cdc53-1, temperature: 37 C
[5] = genetic background: das1 deletion, temperature: 30 C
[6] = genetic background: das1 deletion, temperature: 37 C
[7] = genetic background: doa10 deletion, temperature: 30 C
[8] = genetic background: wild type, temperature: 30 C
[9] = genetic background: wild type, temperature: 37 C
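Also: PSI is a weighted mean of sequencing reads over stability bins, variants kept only with over 10 reads, mCherry proximal and sfGFP distal, peptide attached via GGGS linker.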

Sequence	protein stability index (Saccharomyces cerevisiae [1]; [3])	protein stability index (Saccharomyces cerevisiae [1]; [4])	protein stability index (Saccharomyces cerevisiae [1]; [5])	protein stability index (Saccharomyces cerevisiae [1]; [6])	protein stability index (Saccharomyces cerevisiae [1]; [7])	protein stability index (Saccharomyces cerevisiae [1]; [8])	protein stability index (Saccharomyces cerevisiae [1]; [9])	protein stability index (Saccharomyces cerevisiae [2])
LKTKKKKTNTQK	0.627 ± 0.0068	0.633 ± 0.057	0.717 ± 0.03	0.68 ± 0.038	0.67 ± 0.033	0.715 ± 0.056	0.683 ± 0.0086	0.495 ± 0.037
CLCYFLFYFLFV	0.49 ± 0.0055	0.513 ± 0.026	0.436 ± 0.033	0.572 ± 0.0063	0.465 ± 0.023	0.442 ± 0.029	0.543 ± 0.028	0.501 ± 0.043
WVCCFVWGCLIR	0.2 ± 0.044	0.187 ± 0.0078	0.239 ± 0.021	0.353 ± 0.027	0.295 ± 0.0035	0.233 ± 0.019	0.303 ± 0.0074	0.281 ± 0.0081
LYRIETLFMRAQ	0.353 ± 0.029	0.41 ± 0.022	0.435 ± 0.035	0.407 ± 0.035	0.389 ± 0.059	0.358 ± 0.019	0.354 ± 0.019	0.383 ± 0.021
RASLPSLFRSLL	0.951 ± 0.014	0.913 ± 0.048	0.804 ± 0.047	0.879 ± 0.019	0.8152 ± 0.008	0.807 ± 0.022	0.897 ± 0.011	0.811 ± 0.073
LHLSSFVILLEL	0.36297 ± 6.8e-05	0.317 ± 0.035	0.353 ± 0.024	0.458 ± 0.018	0.478 ± 0.023	0.346 ± 0.014	0.437 ± 0.021	0.421 ± 0.021
CYRRCQAFLVLV	0.313 ± 0.024	0.397 ± 0.015	0.334 ± 0.031	0.449 ± 0.015	0.134 ± 0.0022	0.127 ± 0.026	0.162 ± 0.011	0.181 ± 0.0026
VSLIYKTIKNRV	0.6704 ± 0.0033	0.732 ± 0.0082	0.595 ± 0.03	0.726 ± 0.063	0.396 ± 0.049	0.397 ± 0.015	0.6009 ± 0.001	0.517 ± 0.057
WKNIHGVFVFVM	0.5472 ± 0.001	0.48 ± 0.014	0.389 ± 0.028	0.5696 ± 0.0012	0.25 ± 0.0047	0.284 ± 0.03	0.445 ± 0.0072	0.403 ± 0.012
VAGGFWCWGMVG	0.718 ± 0.034	0.782 ± 0.015	0.663 ± 0.0093	0.788 ± 0.013	0.392 ± 0.016	0.436 ± 0.024	0.677 ± 0.024	0.4642 ± 0.0023
DPTLLLYPLSPL	0.688 ± 0.018	0.765 ± 0.0076	0.654 ± 0.019	0.748 ± 0.014	0.667 ± 0.029	0.685 ± 0.035	0.72 ± 0.023	0.57 ± 0.2
GLLLLGIRLKWG	0.139 ± 0.029	0.274 ± 0.037	0.208 ± 0.015	0.363 ± 0.026	0.157 ± 0.014	0.206 ± 0.013	0.328 ± 0.02	0.269 ± 0.011
SFYVCVPVLWLV	0.248 ± 0.024	0.29 ± 0.036	0.27 ± 0.029	0.407 ± 0.0054	0.136 ± 0.0076	0.118 ± 0.015	0.146 ± 0.028	0.201 ± 0.0038
GVAILFTFFRLL	0.228 ± 0.086	0.526 ± 0.0023	0.456 ± 0.025	0.612 ± 0.02	0.0564 ± 0.016	0.0756 ± 0.0073	0.0737 ± 0.012	0.159 ± 0.022
CKKATILRIKSM	0.589 ± 0.049	0.715 ± 0.051	0.643 ± 0.014	0.691 ± 0.0021	0.17 ± 0.023	0.19 ± 0.031	0.298 ± 0.059	0.304 ± 0.013
RSAVECRVTNIR	0.701 ± 0.031	0.7227 ± 0.00094	0.637 ± 0.018	0.724 ± 0.01	0.639 ± 0.015	0.658 ± 0.036	0.715 ± 0.024	0.546 ± 0.08
FSFEGVLVPLLV	0.31519 ± 3.7e-05	0.301 ± 0.043	0.288 ± 0.036	0.4113 ± 0.00044	0.249 ± 0.0058	0.287 ± 0.033	0.384 ± 0.0086	0.396 ± 0.015
VWSCILPMVYVW	0.111 ± 0.066	0.109 ± 0.0066	0.156 ± 0.022	0.1639 ± 0.00068	0.135 ± 0.016	0.158 ± 0.0067	0.157 ± 0.011	0.203 ± 0.0046
VPGCLGRFLFFL	0.594 ± 0.025	0.6987 ± 0.0066	0.573 ± 0.024	0.722 ± 0.029	0.201 ± 0.032	0.218 ± 0.029	0.413 ± 0.029	0.29 ± 0.024
VTEGMKEVIKQI	0.647 ± 0.014	0.702 ± 0.026	0.629 ± 0.044	0.728 ± 0.013	0.3751 ± 0.00062	0.402 ± 0.038	0.6073 ± 0.0042	0.482 ± 0.0079
